What all share (experiment): purified protein
What all share (format): biochemical, Providencia stuartii

In data set [1] the test system is NC[C@H]1O[C@H](O[C@H]2[C@H](O)[C@@H](O[C@H]3O[C@H](CO)[C@@H](O)[C@H](N)[C@H]3O)[C@H](N)C[C@@H]2N)[C@H](N)C[C@@H]1O. The settings on record: acetyl-CoA aminoglycoside active site; acetylated at N-2′.
The test system of data set [2] is CN[C@@H]1[C@@H](O)[C@@H](O[C@@H]2[C@@H](O)[C@H](O[C@H]3OC(CNCCO)=CC[C@H]3N)[C@@H](N)C[C@H]2NC(=O)[C@@H](O)CCN)OC[C@]1(C)O. The settings on record: acetyl-CoA (S)-HABA tail hydrogen bonds with Glu149 and Asp176.
In data set [3] the test system is CCN[C@@H]1C[C@H](N)[C@@H](O[C@H]2OC(CN)=CC[C@H]2N)[C@H](O)[C@H]1O[C@H]1OC[C@](C)(O)[C@H](NC)[C@H]1O. The settings on record: acetyl-CoA aminoglycoside active site; acetylated at N-2′.

For one substance, Km, kcat and kcat/Km results are on record in article PMC8172861, “Structural and phylogenetic analyses of resistance to next-generation aminoglycosides conferred by AAC(2′) enzymes” (Scientific Reports, 2021).

In general, Km refers to the substrate concentration at which the rate is half of its maximum. What is called kcat is the maximal rate divided by the concentration of active sites. A word on the kcat/Km: it is the turnover number divided by the Michaelis constant.

In the case of AAC(2′)-Ia (Providencia stuartii), the Km came to 14.5 ± 1.7 µM in data set [1], 19.1 ± 2.5 µM in data set [2] and 19.9 ± 1.3 µM in data set [3]. Also, the kcat worked out at 5.04 ± 0.17 s⁻¹ in data set [1], 1.42 ± 0.05 s⁻¹ in data set [2] and 6.05 ± 0.13 s⁻¹ in data set [3]. In addition, the kcat/Km in data set [1] was 348000 ± 51000 M⁻¹ s⁻¹; in data set [2], 74000 ± 12000 M⁻¹ s⁻¹; in data set [3], 304000 ± 26000 M⁻¹ s⁻¹.
